Measurements reported in paper doi:10.1101/208041.
Read-outs that look alike come from different tables or passages of the source.

Experiments:
Assay in all cases: filter binding
[1] = target: T1, dMpAgo (catalytically inactive MpAgo) (Marinitoga piezophila, UniProt H2J4R4 1-639, D446A)
T1 sequence: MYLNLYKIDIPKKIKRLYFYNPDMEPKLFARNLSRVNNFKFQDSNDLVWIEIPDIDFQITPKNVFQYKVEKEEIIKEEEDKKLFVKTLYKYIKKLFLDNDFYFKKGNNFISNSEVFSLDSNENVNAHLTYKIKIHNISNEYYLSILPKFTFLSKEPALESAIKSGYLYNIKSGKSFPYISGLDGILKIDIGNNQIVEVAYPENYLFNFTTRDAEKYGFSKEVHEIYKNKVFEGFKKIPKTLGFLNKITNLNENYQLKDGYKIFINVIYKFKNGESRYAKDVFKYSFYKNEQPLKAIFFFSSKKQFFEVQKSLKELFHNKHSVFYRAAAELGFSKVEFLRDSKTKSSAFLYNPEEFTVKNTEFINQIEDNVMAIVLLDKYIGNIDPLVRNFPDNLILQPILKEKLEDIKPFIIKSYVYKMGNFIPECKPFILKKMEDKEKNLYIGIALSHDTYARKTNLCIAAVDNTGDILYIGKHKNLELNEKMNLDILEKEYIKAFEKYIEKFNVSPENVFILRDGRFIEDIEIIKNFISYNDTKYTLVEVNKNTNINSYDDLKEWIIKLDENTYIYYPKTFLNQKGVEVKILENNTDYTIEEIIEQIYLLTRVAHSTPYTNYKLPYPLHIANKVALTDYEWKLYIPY

[2] = target: T1, dMpAgo (catalytically inactive MpAgo); remark: listed apart in the source
[3] = target: T1, dMpAgo (catalytically inactive MpAgo); remark: listed apart in the source

B1: A6 guide / mm1 (mixed)
RNA 1: UGCGGAUGCCAUAUGCAACUU
RNA 2: GGCAGCAUUCAACCAUAUGGCAUCCGCUUACAGCCAAG
modifications: BrdU at guide 1
B1: binds [1].

B2: G6 guide / U target (mixed)
RNA 1: UGCGGGUGCCAUAUGCAACUU
RNA 2: GGCAGCAUUCAACCAUAUGGCAUCCGCAUACAGCCAAG
modifications: BrdU at guide 1
B2: binds [2].

B3: C6 guide / G target (mixed)
RNA 1: UGCGGCUGCCAUAUGCAACUU
RNA 2: GGCAGCAUUCAACCAUAUGGCAGCCGCAUACAGCCAAG
modifications: BrdU at guide 1
B3: binds [3].
